Results on one molecule are retold here after publication PMC9772109 (Immunity, 2022).

The target in the experiment is H1 HA (recombinant HA of Figure 4E) (Influenza A virus, H1 subtype; strain …, UniProt A0A1J0CXU0). The experiment is described as follows: BLI.

B1: 789-203-3C12 AA variant mAb (Cys33Ala/Cys52Ala heavy chain with the 789-203-3C12 light chain), IgG (antibody, V domains shown)
VH: QVQLQESGPGLVKPSEILSLTCAVSGGSFSSYAWGWIRQPPGKGLEWIGSIAGSGGSNYLNPSLKSRVTLSVDTSKNQFSLILNSVTAADTAVYYCAREGITIFGVVIPRVLDSWGQGAVVTVSS
VL: DIQMTQSPSSLSASVGDTVTITCRASQSISSWLAWYQQKPGKAPNLLIYRASTLQSGVPSRFSGSGSGTDFTLTISSLQSEDFATYFCQQSTSSPFTFGPGTKLDIK
B1: the binding result was “binds”.
